Measurements published in patent US20020146797.

Test system: RR-Src peptide

| Substance | KM (mM) for protein substrate RR-Src, ATP saturated | KM (mM) for protein substrate RR-Src, N^6-(cyclopentyl)ATP saturated |
| --- | --- | --- |
| GST-XD4 (glutathione S-transferase fusion of the XD4 fragment of v-Src, wild-type catalytic domain) | 2.6 mM | – |
| GST-XD4(V323A, I338A) | 3.1 mM | 2.1 mM |
